Measured values reported in US10654893B2, “Self-assembling peptide compositions” (3-D MATRIX, LTD., priority 2014, dated 2020).

Key:
[1] = Rheometer stress sweep test of peptide compositions at selected concentrations (AR500, 40 mm plates); type: physicochemical; conditions: 37° C.; for Loss Modulus (G″) / Storage Modulus (G′): at 1 Pa of oscillation stress, 10 rad/s; for Max. Viscosity (max η′): maximum in range of measured stress; for Yield Stress: stress sweep 10 rad/s
Description: The present Example further describes measurement of various rheological properties of certain peptide compositions at selected concentrations using a rheometer (AR500, TA Instruments) with 40 mm plates. A peptide composition (700 μL) was placed on the rheometer plate and excess composition was gently removed by Kimwipes. Measurements were performed after 2 minutes of relaxation time at 37° C. Storage modulus, loss modulus, and viscosity (η′) were measured at 37° C. with the plates placed at a measuring geometry gap of 300 μm, and stress sweep tests were performed at 0.1 Pa˜1000 Pa of oscillation stress with angular frequency at 10 rad/s.
Results are shown in FIGS. 2-4 for RADA16 (SEQ ID NO:1), IEIK13 (SEQ ID NO:3), and KLD12 (SEQ ID NO:2).

[2] = Rheological properties before and after DMEM treatment; type: physicochemical
Description: Effects of Dulbecco's modified Eagle's medium (DMEM) (pH 7.4) on rheological properties of IEIK13 (SEQ ID NO:3), KLD12 (SEQ ID NO:2), and RADA16 (SEQ ID NO:1) compositions were evaluated using a rheometer (AR500, TA Instruments) with 40 mm plates. DMEM is a cell culture medium that contains 6.4 g/L of NaCl, 3.4 g/L NaHCO3 (sodium bicarbonate), minor amounts of other salts, various amino acids, and 4.5 g/L of glucose. The pH of DMEM is 7.2±0.2 and the osmolality is 335±30 mOsm/Kg H2O. DMEM is close to human physiological fluids, for example, blood.
Before being mixed with the DMEM solution, 1% peptide compositions were kept in 4° C. for at least 48 hours. To perform experiments, 1 mL of peptide composition was gently pipetted and placed on the plate of the rheometer. 2 mL of the DMEM solution was gently added around the peptide composition. The peptide composition was treated with the DMEM for two minutes, then medium was removed, and the plates were placed at a measuring geometry gap at around 450 μm. Measurements were performed at 37° C. after 2 min of relaxation. Frequency tests were performed from 1 rad/s to 100 rad/s at 1 Pa of oscillation stress.
Using a DHR-1 rheometer (TA Instruments), rheological properties of peptide compositions at selected concentrations were measured before and after the DMEM treatment. Frequency sweep tests were performed from 1 rad/sec to 10 rad/sec at 1 Pa and the storage moduli in the graphs were at 1 rad/sec. […] Results are shown in FIGS. 22A and 22B for RADA16 (SEQ ID NO:1) and FIGS. 23A and 23B for IEIK13 (SEQ ID NO:3), respectively.
Using a DHR-1 rheometer (TA Instruments), rheological properties of peptide compositions at selected ion strengths were evaluated 10 mins after the DMEM treatment. Frequency sweep tests were performed from 1 rad/sec to 10 rad/sec at 1 Pa and the storage modulus at 1 rad/sec was selected for data. […] At 0.9 M or higher ionic strengths of NaCl, RADA16 (SEQ ID NO:1) compositions became cloudy.

[3] = tested on: C57 BL/6 Mouse Mesenchymal Stem Cells (mMSCs); test: Cell viability (cytotoxicity) assay; type: cell-based
Description: A cell viability (cytotoxicity) assay was performed to measure the viability of C57 BL/6 Mouse Mesenchymal Stem Cells (mMSCs) with IEIK13 (SEQ ID NO:3), KLD12 (SEQ ID NO:2) and RADA16 (SEQ ID NO:1) compositions as described herein. mMSCs are a frequently used cell line in hydrogel tissue culture systems. […] The final concentration of sucrose was 10%. Cells were washed and re-suspended in 10% sucrose to a final concentration of 5 million cells/ml. Cells were centrifuged and the supernatant was removed. The cells were re-suspended in peptide compositions with 10% sucrose. The protocol was then followed for plating drop cultures and subsequent isolation as described in the PuraMatrix® Guidelines for Use (BD/Corning website). Results are shown in FIGS. 14-16 for RADA16 (SEQ ID NO:1), IEIK13 (SEQ ID NO:3), and KLD12 (SEQ ID NO:2), respectively.

[4] = Mixing of RADA16 with DMEM and centrifugation; type: physicochemical
Description: When the mixture was centrifuged at 2500 rpm for 5 min, phase separation of cloudy RADA16 (SEQ ID NO:1) precipitated from the mixture. In this case, the peptide assemblies (i.e. initially were formed via hydrophobic interactions) were likely broken down during the mixing process. Attractive charge-charge interactions were dominant over hydrophobic interactions, which induce formation of random intra- and inter-molecular aggregates. The phase separation is illustrated in FIG. 7.

## Arg-Ala-Asp-Ala-Arg-Ala-Asp-Ala-Arg-Ala-Asp-Ala-Arg-Ala-Asp-Ala [RADA16]
[1]; Conc. 1%
  Loss Modulus (G″): 12 Pa
  Storage Modulus (G′): 74 Pa
  Max. Viscosity (max η′): 2.3 Pa · s
  Yield Stress: 15.9 Pa
[1]; Conc. 1.5%
  Loss Modulus (G″): 30 Pa
  Storage Modulus (G′): 158 Pa
  Max. Viscosity (max η′): 3.4 Pa · s
  Yield Stress: 20.0 Pa
[1]; Conc. 2%
  Loss Modulus (G″): 39 Pa
  Storage Modulus (G′): 217 Pa
  Max. Viscosity (max η′): 4.0 Pa · s
  Yield Stress: 31.6 Pa
[1]; Conc. 2.5%
  Loss Modulus (G″): 53 Pa
  Storage Modulus (G′): 352 Pa
  Max. Viscosity (max η′): 5.6 Pa · s
  Yield Stress: 50.1 Pa
[2]; 0.9 M or higher ionic strengths of NaCl
  Appearance of composition: became cloudy
[2]; 10 mins after DMEM treatment, NaCl, decreased with 0.7 M or higher
  Rheological properties as a function of ionic strength after DMEM treatment: increased with ionic strength adjustment up to 0.7 M
[2]; selected NaCl ionic strengths, RADA16 statement follows 0.9 M or higher NaCl (no gelation)
  Change of rheological properties with DMEM treatment: did not change with the DMEM treatment
[2]; selected concentrations, storage moduli at 1 rad/sec, 1 Pa
  Rheological properties with DMEM treatment and/or pH elevation: increased with the DMEM treatment and/or pH elevation
[3]
  Cell viability at 0.5% versus 0.25%: significantly higher than that at 0.25%
[4]; 0.5 mL of DMEM mixed with 0.5 mL of 2% RADA16
  Appearance after mixing with DMEM: cloudy and runny emulsions
[4]; centrifuged at 2500 rpm for 5 min
  Phase behaviour after centrifugation of the DMEM mixture: precipitated
